Test results taken from publication PMC12077210, “Di-HAMP domains of a cytoplasmic chemoreceptor modulate nucleoid array formation and downstream signaling” (mBio, 2024).

Experiments:
[1] = biological target: FrzCD^ΔMA (Myxococcus xanthus) (UniProt P43500); assay: SEC-MALS; no DNA; Superdex 200 Increase 10/300, 50 mM NaCl, 50 mM Tris pH 8.0, about 25°C; 100 μL injected at 45 and 150 μM (FrzCD), 70 and 200 μM (ΔMA), 25 μM (ΔH1ΔH2), 25 and 65 μM (ΔH2), 25 μM (ΔH1)
[2] = biological target: FrzCD^ΔMA (Myxococcus xanthus) (UniProt P43500); assay: SEC-MALS; with 35 bp DNA in the injected sample: 70 μM FrzCD with 30 μM DNA; 200 μM FrzCD with 100 μM DNA; 200 μM ΔMA with 100 μM DNA; 100 μM ΔH2 with 50 μM DNA
[3] = biological target: FrzCD^ΔH2 (Myxococcus xanthus) (UniProt P43500); assay: SEC-MALS; no DNA; Superdex 200 Increase 10/300, 50 mM NaCl, 50 mM Tris pH 8.0, about 25°C; 100 μL injected at 45 and 150 μM (FrzCD), 70 and 200 μM (ΔMA), 25 μM (ΔH1ΔH2), 25 and 65 μM (ΔH2), 25 μM (ΔH1)
[4] = biological target: FrzCD^ΔH1ΔH2 (Myxococcus xanthus) (UniProt P43500); assay: as above
FrzCD (EMSA/SEC-MALS) [5] = biological target: T1, FrzCD (EMSA/SEC-MALS) (Myxococcus xanthus, UniProt P43500 1-417); assay: EMSA; EMSA: 50 mM Tris pH 7.4, 50 mM NaCl, 1 mM DTT, 10% glycerol, 25 C, 30 min, 0.5-2 uM DNA; BLI: 10 mM Tris pH 7.4, 150 mM NaCl, 25 C, 5 nM DNA; details: protein: recombinant, tags: C-terminal His6 (pHis17), chain copies: 2
T1 sequence: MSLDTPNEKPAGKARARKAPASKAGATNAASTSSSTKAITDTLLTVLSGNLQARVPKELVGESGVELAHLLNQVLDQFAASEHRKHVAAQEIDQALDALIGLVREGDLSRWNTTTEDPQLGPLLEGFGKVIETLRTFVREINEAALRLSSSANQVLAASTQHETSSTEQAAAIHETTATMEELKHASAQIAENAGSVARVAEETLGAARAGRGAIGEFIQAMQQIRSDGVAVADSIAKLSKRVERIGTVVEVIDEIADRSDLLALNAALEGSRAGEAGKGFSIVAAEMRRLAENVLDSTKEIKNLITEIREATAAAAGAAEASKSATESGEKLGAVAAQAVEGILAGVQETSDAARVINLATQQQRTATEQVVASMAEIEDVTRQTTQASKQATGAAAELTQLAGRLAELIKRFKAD

[6] = biological target: the molecule itself; assay: SEC-MALS; no DNA; Superdex 200 Increase 10/300, 50 mM NaCl, 50 mM Tris pH 8.0, about 25°C; 100 μL injected at 45 and 150 μM (FrzCD), 70 and 200 μM (ΔMA), 25 μM (ΔH1ΔH2), 25 and 65 μM (ΔH2), 25 μM (ΔH1)
FrzCD (EMSA/SEC-MALS) [7] = biological target: T1, FrzCD (EMSA/SEC-MALS); assay: SEC-MALS; high-order oligomers at 200 uM protein, 100 uM DNA; EMSA: 50 mM Tris pH 7.4, 50 mM NaCl, 1 mM DTT, 10% glycerol, 25 C, 30 min, 0.5-2 uM DNA; BLI: 10 mM Tris pH 7.4, 150 mM NaCl, 25 C, 5 nM DNA; details: protein: recombinant; tags: C-terminal His6 (pHis17); chain copies: 2; blunt
FrzCDΔH1 (EMSA) = biological target: T2, FrzCDΔH1 (EMSA) (Myxococcus xanthus, UniProt P43500 1-417, del32-83); assay: EMSA; EMSA: 50 mM Tris pH 7.4, 50 mM NaCl, 1 mM DTT, 10% glycerol, 25 C, 30 min, 0.5-2 uM DNA; BLI: 10 mM Tris pH 7.4, 150 mM NaCl, 25 C, 5 nM DNA; details: protein: recombinant; tags: C-terminal His6 (pHis17); blunt
T2 sequence: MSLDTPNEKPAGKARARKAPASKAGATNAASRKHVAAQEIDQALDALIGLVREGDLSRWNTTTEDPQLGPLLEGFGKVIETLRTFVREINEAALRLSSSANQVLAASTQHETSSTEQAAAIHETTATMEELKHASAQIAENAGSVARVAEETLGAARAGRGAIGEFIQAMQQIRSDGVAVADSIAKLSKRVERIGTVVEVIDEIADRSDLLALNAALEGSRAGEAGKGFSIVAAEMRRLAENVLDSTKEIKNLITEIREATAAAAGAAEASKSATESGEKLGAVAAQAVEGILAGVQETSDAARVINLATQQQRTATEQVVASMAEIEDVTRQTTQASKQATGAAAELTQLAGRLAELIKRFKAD

FrzCDΔH1ΔH2 (EMSA) = biological target: T3, FrzCDΔH1ΔH2 (EMSA) (Myxococcus xanthus, UniProt P43500 1-417, del32-136); assay: as above; details: protein: recombinant; tags: C-terminal His6 (pHis17); blunt
T3 sequence: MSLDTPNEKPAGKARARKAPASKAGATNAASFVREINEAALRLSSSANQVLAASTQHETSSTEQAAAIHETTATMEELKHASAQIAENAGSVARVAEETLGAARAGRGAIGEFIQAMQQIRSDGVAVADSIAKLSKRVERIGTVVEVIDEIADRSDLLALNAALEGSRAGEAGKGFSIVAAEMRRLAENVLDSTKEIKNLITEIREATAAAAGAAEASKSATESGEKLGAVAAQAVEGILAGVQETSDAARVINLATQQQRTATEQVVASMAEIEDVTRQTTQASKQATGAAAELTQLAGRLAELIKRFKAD

FrzCDΔH2 (EMSA/SEC-MALS) = biological target: T4, FrzCDΔH2 (EMSA/SEC-MALS) (Myxococcus xanthus, UniProt P43500 1-417, del84-136); assay: as above; details: protein: recombinant; tags: C-terminal His6 (pHis17); blunt
T4 sequence: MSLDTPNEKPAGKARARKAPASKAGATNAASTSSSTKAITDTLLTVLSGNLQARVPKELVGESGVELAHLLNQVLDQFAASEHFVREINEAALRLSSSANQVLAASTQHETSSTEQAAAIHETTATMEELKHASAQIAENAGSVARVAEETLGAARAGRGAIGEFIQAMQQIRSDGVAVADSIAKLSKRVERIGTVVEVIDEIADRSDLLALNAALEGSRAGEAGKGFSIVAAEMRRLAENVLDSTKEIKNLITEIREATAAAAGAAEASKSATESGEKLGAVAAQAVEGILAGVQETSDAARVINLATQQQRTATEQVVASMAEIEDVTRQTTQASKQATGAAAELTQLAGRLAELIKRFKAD

His6-FrzCD (BLI) = biological target: T5, His6-FrzCD (BLI) (Myxococcus xanthus, UniProt P43500 1-417); assay: BLI; EMSA: 50 mM Tris pH 7.4, 50 mM NaCl, 1 mM DTT, 10% glycerol, 25 C, 30 min, 0.5-2 uM DNA; BLI: 10 mM Tris pH 7.4, 150 mM NaCl, 25 C, 5 nM DNA; details: protein: recombinant; tags: N-terminal His6 (pETphos); label: 5' biotin on forward strand; blunt
T5 sequence: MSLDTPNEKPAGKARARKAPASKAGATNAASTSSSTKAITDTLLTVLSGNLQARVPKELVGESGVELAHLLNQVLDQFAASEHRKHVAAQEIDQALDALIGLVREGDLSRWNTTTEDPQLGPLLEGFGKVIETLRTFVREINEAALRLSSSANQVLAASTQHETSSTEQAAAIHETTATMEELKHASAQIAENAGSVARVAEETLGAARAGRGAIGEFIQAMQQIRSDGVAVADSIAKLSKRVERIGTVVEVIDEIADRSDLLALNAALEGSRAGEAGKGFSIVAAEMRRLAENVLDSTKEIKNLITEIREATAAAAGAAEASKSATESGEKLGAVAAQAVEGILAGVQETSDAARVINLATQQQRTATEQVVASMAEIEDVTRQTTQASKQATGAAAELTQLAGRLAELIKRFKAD

His6-FrzCDΔH1ΔH2 (BLI) = biological target: T6, His6-FrzCDΔH1ΔH2 (BLI) (Myxococcus xanthus, UniProt P43500 1-417, del31-136); assay: as above; details: protein: recombinant; tags: N-terminal His6 (pETphos); label: 5' biotin on forward strand; blunt
T6 sequence: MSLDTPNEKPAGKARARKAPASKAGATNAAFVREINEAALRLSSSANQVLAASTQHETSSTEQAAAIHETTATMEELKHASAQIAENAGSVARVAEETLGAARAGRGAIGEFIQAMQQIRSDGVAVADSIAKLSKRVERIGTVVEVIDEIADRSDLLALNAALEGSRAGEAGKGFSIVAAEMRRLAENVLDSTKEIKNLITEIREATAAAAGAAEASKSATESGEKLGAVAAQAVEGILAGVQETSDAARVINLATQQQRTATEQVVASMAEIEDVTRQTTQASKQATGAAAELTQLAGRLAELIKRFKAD

His6-FrzCDΔH2 (BLI) = biological target: T7, His6-FrzCDΔH2 (BLI) (Myxococcus xanthus, UniProt P43500 1-417, del84-136); assay: as above; details: protein: recombinant; tags: N-terminal His6 (pETphos); label: 5' biotin on forward strand; blunt
T7 sequence: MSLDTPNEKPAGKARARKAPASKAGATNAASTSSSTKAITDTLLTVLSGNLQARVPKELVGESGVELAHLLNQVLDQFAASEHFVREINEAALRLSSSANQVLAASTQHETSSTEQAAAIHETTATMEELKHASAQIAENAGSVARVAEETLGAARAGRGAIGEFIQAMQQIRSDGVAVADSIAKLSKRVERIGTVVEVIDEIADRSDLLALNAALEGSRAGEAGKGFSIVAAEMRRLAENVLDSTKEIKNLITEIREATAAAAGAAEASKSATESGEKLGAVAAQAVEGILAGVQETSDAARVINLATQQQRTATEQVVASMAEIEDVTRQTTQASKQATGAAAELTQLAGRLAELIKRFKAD

Molecule: FrzCD^ΔMA (from UniProt P43500 1-136) (domain or fragment)
- stoichiometry N [1]: 2
- stoichiometry N [2]: 2

Molecule: FrzCD^ΔH2 (from UniProt P43500 1-417) (receptor)
- stoichiometry N [3]: 4

Molecule: FrzCD^ΔH1ΔH2 (from UniProt P43500 1-417) (receptor)
- stoichiometry N [4]: 4

B1: 8 bp DNA (dsDNA)
DNA 1: ACTGCAGT
DNA 2: ACTGCAGT
- binding result (FrzCD (EMSA/SEC-MALS) [5]; blunt): binds

B2: FrzCD^ΔH1 (receptor, Myxococcus xanthus, UniProt P43500 1-417, looked up)
chain: MSLDTPNEKPAGKARARKAPASKAGATNAARKHVAAQEIDQALDALIGLVREGDLSRWNTTTEDPQLGPLLEGFGKVIETLRTFVREINEAALRLSSSANQVLAASTQHETSSTEQAAAIHETTATMEELKHASAQIAENAGSVARVAEETLGAARAGRGAIGEFIQAMQQIRSDGVAVADSIAKLSKRVERIGTVVEVIDEIADRSDLLALNAALEGSRAGEAGKGFSIVAAEMRRLAENVLDSTKEIKNLITEIREATAAAAGAAEASKSATESGEKLGAVAAQAVEGILAGVQETSDAARVINLATQQQRTATEQVVASMAEIEDVTRQTTQASKQATGAAAELTQLAGRLAELIKRFKAD
notes: FrzCD of Myxococcus xanthus with the HAMP1 domain (H1, residues 31 to 83) deleted; The limits of the deletion are the printed limits of the domain; The tag is that of the pHis17 constructs; source: E. coli (BL21-AI, BL21-DE3 or C43), purified (HisTrap, ion exchange)
- stoichiometry N [6]: 4

B3: FrzCD full-length (receptor, Myxococcus xanthus, UniProt P43500 1-417, looked up)
chain: MSLDTPNEKPAGKARARKAPASKAGATNAASTSSSTKAITDTLLTVLSGNLQARVPKELVGESGVELAHLLNQVLDQFAASEHRKHVAAQEIDQALDALIGLVREGDLSRWNTTTEDPQLGPLLEGFGKVIETLRTFVREINEAALRLSSSANQVLAASTQHETSSTEQAAAIHETTATMEELKHASAQIAENAGSVARVAEETLGAARAGRGAIGEFIQAMQQIRSDGVAVADSIAKLSKRVERIGTVVEVIDEIADRSDLLALNAALEGSRAGEAGKGFSIVAAEMRRLAENVLDSTKEIKNLITEIREATAAAAGAAEASKSATESGEKLGAVAAQAVEGILAGVQETSDAARVINLATQQQRTATEQVVASMAEIEDVTRQTTQASKQATGAAAELTQLAGRLAELIKRFKAD
notes: FrzCD, cytoplasmic methyl-accepting chemotaxis protein of Myxococcus xanthus; DB 1-30, H1 31-83, H2 84-136, MA 137-417; The C-terminal hexa-histidine tag is that of the pHis17 constructs; also called His6-FrzCD; wild type; source: E. coli (BL21-AI, BL21-DE3 or C43), purified (HisTrap, ion exchange)
- stoichiometry N [6]: 2

Molecule: AAAAAAAA (ssDNA) [8-base poly-A ssDNA]
- binding result (FrzCD (EMSA/SEC-MALS) [5]): binds

B4: 35 bp DNA (dsDNA)
DNA 1: GTCACCTGCTCTAGCTAATAGACTGAGCCGAGGTG
DNA 2: CACCTCGGCTCAGTCTATTAGCTAGAGCAGGTGAC
- binding result (FrzCD (EMSA/SEC-MALS) [7]): binds
- binding result (FrzCDΔH1 (EMSA)): binds
- binding result (FrzCDΔH1ΔH2 (EMSA)): binds
- binding result (FrzCDΔH2 (EMSA/SEC-MALS)): binds

B5: 178 bp DNA (dsDNA)
DNA 1: GGATCGCATCTGCCTACATCCCCAGCTCCCGGTCGGTCCGCTCGGAACCTAGCCCGGGTCAAAGACCCGGGGTCTATGTTGACCCATTTGGTGGGGATGGGTCTAATTGGACCTGGCGTTTTTTCGCGCCATGGAAATGTCAAGGCCCGTGATTCCAGACTGTTGGGCAGGGAGTT
DNA 2: AACTCCCTGCCCAACAGTCTGGAATCACGGGCCTTGACATTTCCATGGCGCGAAAAAACGCCAGGTCCAATTAGACCCATCCCCACCAAATGGGTCAACATAGACCCCGGGTCTTTGACCCGGGCTAGGTTCCGAGCGGACCGACCGGGAGCTGGGGATGTAGGCAGATGCGATCC
- Kd (His6-FrzCD (BLI)): 650 nM
- Kd (His6-FrzCDΔH1ΔH2 (BLI)): 210 nM
- Kd (His6-FrzCDΔH2 (BLI)): 1730 nM
